# Data published in publication PMC10777020, “The N1 domain of the peroxisomal AAA-ATPase Pex6 is required for Pex15 binding and proper assembly with Pex1” (The Journal of Biological Chemistry, 2023).
# T1: Pex1/Pex6 (Pex1-FLAG/His-Pex6) (Saccharomyces cerevisiae, UniProt P24004+P33760)
# T1 construct: heterohexamer of alternating Pex1 and Pex6
# T1 sequence (P24004 1-1043): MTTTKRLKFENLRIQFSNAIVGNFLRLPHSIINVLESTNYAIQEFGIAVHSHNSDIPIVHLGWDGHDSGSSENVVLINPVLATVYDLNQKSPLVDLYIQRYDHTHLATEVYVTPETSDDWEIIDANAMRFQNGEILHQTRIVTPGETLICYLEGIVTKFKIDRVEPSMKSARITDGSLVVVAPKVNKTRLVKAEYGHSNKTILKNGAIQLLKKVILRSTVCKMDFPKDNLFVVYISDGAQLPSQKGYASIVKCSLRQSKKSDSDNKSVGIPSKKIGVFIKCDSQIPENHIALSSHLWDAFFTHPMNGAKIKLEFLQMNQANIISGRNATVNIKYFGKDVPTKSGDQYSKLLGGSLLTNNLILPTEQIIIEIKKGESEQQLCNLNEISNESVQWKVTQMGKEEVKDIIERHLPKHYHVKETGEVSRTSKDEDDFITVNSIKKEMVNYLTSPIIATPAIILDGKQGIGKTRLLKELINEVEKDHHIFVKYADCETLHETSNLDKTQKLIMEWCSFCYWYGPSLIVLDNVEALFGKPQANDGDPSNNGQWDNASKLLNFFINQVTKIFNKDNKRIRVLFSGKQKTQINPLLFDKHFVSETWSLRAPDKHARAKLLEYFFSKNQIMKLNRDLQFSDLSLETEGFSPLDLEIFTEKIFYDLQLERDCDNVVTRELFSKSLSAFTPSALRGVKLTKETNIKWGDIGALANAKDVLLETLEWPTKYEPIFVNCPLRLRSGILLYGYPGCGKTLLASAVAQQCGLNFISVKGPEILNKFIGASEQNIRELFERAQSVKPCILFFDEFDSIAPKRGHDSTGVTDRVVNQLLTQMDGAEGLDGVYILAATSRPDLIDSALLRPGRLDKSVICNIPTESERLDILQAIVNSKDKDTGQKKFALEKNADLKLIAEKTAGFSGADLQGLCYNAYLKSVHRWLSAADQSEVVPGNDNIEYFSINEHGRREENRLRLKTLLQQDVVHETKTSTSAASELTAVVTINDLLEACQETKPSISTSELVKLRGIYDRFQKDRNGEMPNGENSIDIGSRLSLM
# T1 sequence (P33760 1-1030): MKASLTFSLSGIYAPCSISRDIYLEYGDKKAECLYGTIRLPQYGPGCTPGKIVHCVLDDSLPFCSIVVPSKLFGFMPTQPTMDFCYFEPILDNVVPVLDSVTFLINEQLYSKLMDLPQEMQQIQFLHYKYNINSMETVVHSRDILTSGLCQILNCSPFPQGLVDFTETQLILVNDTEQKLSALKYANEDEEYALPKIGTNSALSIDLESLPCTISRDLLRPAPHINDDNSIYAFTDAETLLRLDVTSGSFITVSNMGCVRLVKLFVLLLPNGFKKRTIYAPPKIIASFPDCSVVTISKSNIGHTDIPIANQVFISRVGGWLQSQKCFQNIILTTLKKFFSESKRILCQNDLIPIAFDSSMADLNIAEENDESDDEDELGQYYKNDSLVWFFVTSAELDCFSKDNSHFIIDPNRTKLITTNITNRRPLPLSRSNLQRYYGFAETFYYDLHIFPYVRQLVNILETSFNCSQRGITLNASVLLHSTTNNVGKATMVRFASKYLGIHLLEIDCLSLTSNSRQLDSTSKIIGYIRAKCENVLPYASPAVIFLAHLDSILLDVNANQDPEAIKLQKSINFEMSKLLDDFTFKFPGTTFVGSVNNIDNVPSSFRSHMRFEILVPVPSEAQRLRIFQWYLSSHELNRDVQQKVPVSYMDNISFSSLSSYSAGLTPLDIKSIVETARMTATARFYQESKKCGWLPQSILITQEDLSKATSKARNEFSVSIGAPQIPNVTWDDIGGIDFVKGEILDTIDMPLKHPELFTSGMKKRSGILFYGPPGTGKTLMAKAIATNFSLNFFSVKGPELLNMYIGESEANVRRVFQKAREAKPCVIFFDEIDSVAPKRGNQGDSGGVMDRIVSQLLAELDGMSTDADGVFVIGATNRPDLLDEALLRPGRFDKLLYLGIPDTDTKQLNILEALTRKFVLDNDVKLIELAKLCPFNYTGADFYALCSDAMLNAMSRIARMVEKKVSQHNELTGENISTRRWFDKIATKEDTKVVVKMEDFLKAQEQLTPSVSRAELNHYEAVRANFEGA
# T2: Pex1/ΔN1-Pex6 (Saccharomyces cerevisiae, UniProt P24004+P33760)
# T2 construct: Pex1 with C-terminal FLAG; Pex6 lacking first 184 residues (N1 domain) with N-terminal His tag; heterohexamer
# T2 sequence (P24004 1-1043): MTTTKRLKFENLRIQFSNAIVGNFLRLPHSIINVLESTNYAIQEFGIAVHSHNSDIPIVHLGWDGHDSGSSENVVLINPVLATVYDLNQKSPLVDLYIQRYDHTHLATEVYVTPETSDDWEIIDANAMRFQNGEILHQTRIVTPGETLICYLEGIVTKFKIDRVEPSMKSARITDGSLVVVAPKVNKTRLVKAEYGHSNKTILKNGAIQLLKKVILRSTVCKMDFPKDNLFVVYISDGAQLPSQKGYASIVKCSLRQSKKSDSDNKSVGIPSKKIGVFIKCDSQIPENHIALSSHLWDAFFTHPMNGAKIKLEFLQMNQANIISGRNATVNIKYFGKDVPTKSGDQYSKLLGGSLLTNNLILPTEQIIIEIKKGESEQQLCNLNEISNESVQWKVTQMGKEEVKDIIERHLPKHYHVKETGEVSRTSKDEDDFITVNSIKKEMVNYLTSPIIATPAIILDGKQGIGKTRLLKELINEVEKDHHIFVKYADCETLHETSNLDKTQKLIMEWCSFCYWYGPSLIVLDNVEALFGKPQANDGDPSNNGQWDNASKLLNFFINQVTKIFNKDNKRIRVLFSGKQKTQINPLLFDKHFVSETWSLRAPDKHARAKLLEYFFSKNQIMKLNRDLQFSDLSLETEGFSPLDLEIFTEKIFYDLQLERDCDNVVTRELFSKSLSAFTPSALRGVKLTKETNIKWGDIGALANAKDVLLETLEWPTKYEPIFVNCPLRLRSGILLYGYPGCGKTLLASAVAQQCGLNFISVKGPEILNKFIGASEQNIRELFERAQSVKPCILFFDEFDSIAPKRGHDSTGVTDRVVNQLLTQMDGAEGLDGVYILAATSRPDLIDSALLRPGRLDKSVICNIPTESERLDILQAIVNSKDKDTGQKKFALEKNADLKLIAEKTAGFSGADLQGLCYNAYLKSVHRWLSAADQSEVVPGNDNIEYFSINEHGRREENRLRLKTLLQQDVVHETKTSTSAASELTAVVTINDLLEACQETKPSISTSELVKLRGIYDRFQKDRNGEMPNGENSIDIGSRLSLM
# T2 sequence (P33760 185-1030): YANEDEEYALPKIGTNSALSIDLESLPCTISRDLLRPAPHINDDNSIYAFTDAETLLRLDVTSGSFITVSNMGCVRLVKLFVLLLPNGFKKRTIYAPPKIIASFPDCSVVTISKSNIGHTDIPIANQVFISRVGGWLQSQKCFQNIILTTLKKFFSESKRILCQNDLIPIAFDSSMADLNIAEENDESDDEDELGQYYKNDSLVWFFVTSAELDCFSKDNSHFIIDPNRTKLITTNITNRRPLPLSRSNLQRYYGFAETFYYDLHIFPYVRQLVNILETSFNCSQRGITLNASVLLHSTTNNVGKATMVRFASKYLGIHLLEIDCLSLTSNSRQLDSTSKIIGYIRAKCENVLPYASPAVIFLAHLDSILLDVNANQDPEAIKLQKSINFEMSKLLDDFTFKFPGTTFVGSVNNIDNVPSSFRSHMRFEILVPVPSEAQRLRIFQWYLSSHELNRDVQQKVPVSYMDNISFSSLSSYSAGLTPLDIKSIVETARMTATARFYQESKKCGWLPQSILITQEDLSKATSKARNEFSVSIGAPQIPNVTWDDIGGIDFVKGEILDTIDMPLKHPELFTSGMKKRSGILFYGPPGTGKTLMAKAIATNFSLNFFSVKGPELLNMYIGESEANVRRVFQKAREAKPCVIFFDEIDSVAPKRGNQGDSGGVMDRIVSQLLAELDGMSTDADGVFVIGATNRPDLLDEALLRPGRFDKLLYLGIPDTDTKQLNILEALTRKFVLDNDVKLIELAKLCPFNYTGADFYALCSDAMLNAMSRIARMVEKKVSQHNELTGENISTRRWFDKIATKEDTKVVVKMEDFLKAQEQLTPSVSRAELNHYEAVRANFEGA
# T3: His-Pex6 (S. cerevisiae, UniProt P33760 1-1030)
# T3 construct: Pex6, AAA-ATPase of S. cerevisiae; no limits stated for the construct; In all experiments it stood in a complex with Pex1-FLAG or a Pex1 variant; also called ScPex6; His-tagged Pex6; source: E. coli BL21*(DE3), co-expressed with Pex1-FLAG or its variants; in lysate, then purified (Ni-NTA, anti-FLAG, Superose6 Increase); not shown: His, N-terminal, kept
# T3 sequence: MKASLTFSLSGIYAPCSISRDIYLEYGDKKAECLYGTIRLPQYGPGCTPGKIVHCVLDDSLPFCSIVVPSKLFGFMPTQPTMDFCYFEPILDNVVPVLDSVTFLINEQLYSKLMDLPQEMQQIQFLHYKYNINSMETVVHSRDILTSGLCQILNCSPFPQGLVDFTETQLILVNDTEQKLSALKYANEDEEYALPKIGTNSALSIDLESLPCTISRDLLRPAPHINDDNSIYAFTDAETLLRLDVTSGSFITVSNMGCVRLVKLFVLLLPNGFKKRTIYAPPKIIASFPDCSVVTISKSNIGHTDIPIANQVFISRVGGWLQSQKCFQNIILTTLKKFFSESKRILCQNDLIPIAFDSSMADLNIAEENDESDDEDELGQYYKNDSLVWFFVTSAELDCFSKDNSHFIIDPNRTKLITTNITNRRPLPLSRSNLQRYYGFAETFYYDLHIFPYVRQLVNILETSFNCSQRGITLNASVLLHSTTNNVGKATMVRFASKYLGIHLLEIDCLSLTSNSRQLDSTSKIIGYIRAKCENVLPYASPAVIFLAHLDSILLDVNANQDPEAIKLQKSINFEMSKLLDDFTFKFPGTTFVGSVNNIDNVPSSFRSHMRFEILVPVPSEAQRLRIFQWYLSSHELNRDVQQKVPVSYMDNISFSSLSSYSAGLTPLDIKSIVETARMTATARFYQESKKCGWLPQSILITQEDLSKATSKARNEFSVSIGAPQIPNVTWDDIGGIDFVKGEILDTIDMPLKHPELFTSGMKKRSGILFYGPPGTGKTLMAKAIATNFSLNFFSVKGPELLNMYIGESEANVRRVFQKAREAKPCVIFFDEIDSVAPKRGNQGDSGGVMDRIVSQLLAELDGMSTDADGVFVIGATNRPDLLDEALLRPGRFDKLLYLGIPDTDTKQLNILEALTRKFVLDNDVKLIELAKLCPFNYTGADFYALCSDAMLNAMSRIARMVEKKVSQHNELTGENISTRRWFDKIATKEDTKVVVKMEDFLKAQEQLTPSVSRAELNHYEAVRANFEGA
# Legend:
# [1] = tested on: T4, Nc1ncnc2c1ncn2[C@@H]1O[C@H](COP(=O)(O)OP(=O)(O)OP(=O)(O)O)[C@@H](O)[C@H]1O; experiment: purified protein; format: biochemical, Saccharomyces cerevisiae; conditions: 30 °C, ATP varied, hydrolysis in D2 ring
# T4 construct: heterohexamer of alternating Pex1 and Pex6
# [2] = biological target: T1, Pex1/Pex6 (Pex1-FLAG/His-Pex6); experiment: cryo-EM structure, ~[…] Å D1, ~[…]-9 Å D2; format: binding; conditions: 1 mM ATP, pH 7.6, 10 mM MgCl2, with mEOS3.2-Pex15 1-309 (no substrate density in pore); ATP modelled in all D1 sites and four D2 sites
# [3] = biological target: T2, Pex1/ΔN1-Pex6; experiment: enzyme-coupled ATPase assay; format: biochemical; conditions: 5 mM ATP, 30 °C
# [4] = biological target: T3, His-Pex6; experiment: cross-linking; photocrosslinking by AzF in Pex1 as above, in the absence or presence of 10 uM Pex15 1-309, Pex15 1-266 or Pex15 43-309; His-Pex6 stood in the complex with the Pex1 variant; conditions: both partners purified
binding result [4],Molecule,Km [1] [µM],other results
–,Pex1/Pex6 (Pex1-FLAG/His-Pex6) (Saccharomyces cerevisiae S288C; P24004:DEL941-967),1030,–
–,Nc1ncnc2c1ncn2[C@@H]1O[C@H](COP(=O)(O)OP(=O)(O)OP(=O)(O)O)[C@@H](O)[C@H]1O [ATP],–,"cryo-EM structure, ~4 Å D1, ~5-9 Å D2 [2]: we find density for nucleotide in all the D1 ATPase domains, which we modeled as ATP; enzyme-coupled ATPase assay [3]: Pex1/ΔN1-Pex6 motor had ATPase activity comparable to WT Pex1/Pex6"
–,Pex1/Pex6 (Pex1-FLAG/His-Pex6) (Saccharomyces cerevisiae S288C),230,–
binds,"Pex15 1-309 (cytosolic domain of Pex15) (domain or fragment, S. cerevisiae, UniProt Q08215 1-309, looked up, also called Pex15's cytosolic domain) MAASEIMNNLPMHSLDSSLRDLLNDDLFIESDESTKSVNDQRSEVFQECVNLFIKRDIKDCLEKMSEVGFIDITVFKSNPMILDLFVSACDIMPSFTKLGLTLQSEILNIFTLDTPQCIETRKIILGDLSKLLVINKFFRCCIKVIQFNLTDHTEQEEKTLELESIMSDFIFVYITKMRTTIDVVGLQELIEIFIFQVKVKLHHKKPSPNMYWALCKTLPKLSPTLKGLYLSKDVSIEDAILNSIDNKIQKDKAKSKGKQRGVKQKIHHFHEPMLHNSSEEQVKVEDAFNQRTSTDSRLQSTGTAPRKK",–,–
binds,"Pex15 1-266 (domain or fragment, S. cerevisiae, UniProt Q08215 1-266, looked up) MAASEIMNNLPMHSLDSSLRDLLNDDLFIESDESTKSVNDQRSEVFQECVNLFIKRDIKDCLEKMSEVGFIDITVFKSNPMILDLFVSACDIMPSFTKLGLTLQSEILNIFTLDTPQCIETRKIILGDLSKLLVINKFFRCCIKVIQFNLTDHTEQEEKTLELESIMSDFIFVYITKMRTTIDVVGLQELIEIFIFQVKVKLHHKKPSPNMYWALCKTLPKLSPTLKGLYLSKDVSIEDAILNSIDNKIQKDKAKSKGKQRGVKQK",–,–
